Results as given in paper PMC12525004, “Bacillus subtilis DinG 3′⟶5′ Exo(ribo)nuclease: A Helpmate to Mitigate Replication Stress” (International Journal of Molecular Sciences, 2025).
Numbering of substitutions follows the chain as printed.

B1: RecA (natural protein, B. subtilis, UniProt P16971 1-348, looked up)
chain: MSDRQAALDMALKQIEKQFGKGSIMKLGEKTDTRISTVPSGSLALDTALGIGGYPRGRIIEVYGPESSGKTTVALHAIAEVQQQGGQAAFIDAEHALDPVYAQKLGVNIEELLLSQPDTGEQALEIAEALVRSGAVDIVVVDSVAALVPKAEIEGDMGDSHVGLQARLMSQALRKLSGAINKSKTIAIFINQIREKVGVMFGNPETTPGGRALKFYSSVRLEVRRAEQLKQGNDVMGNKTKIKVVKNKVAPPFRTAEVDIMYGEGISKEGEIIDLGTELDIVQKSGSWYSYEEERLGQGRENAKQFLKENKDIMLMIQEQIREHYGLDNNGVVQQQAEETQEELEFEE
notes: RecA recombinase, Bacillus subtilis; overproduced from plasmid pBT61 in B. subtilis BG214; also called recombinase RecA
B2: RnhC (enzyme, B. subtilis, UniProt P94541 1-313, looked up)
chain: MSHSVIKVSLSAIDQMKMTYSGSLTASVPQGAVFQAKPPGCTITAYQSGKVLFQGKNAAAESARWGTAEPQEKKKTAKKPADPRYAPPADIAGMSVIGSDEVGTGDYFGPMTVVCAYVDKTMLPLMKELGVKDSKDLKDPQIIEIARNLIKTIPYSLLVLKNEKYNSMQEKGMSQGKMKALLHNQAITHLLRKLDGVKPEAILIDQFAEPGVYFNHLKGRDIVKERTYFSTKAEGIHLAVAAASIIARYSFLMEMDKLSRAAGMTLPKGAGPHVDEAAAKLILKKGASALRTFTKLHFANTQKAQRLADKKRS
notes: RnhC (RNase HIII), Bacillus subtilis; rnhC gene cloned into NdeI-linearised pET21b (pCB1242); also called RNase HIII; RnhC-His; source: E. coli BL21(DE3) [pLysS] carrying pCB1242 (rnhC-His), purified (Ni2+ His-Trap)
B3: 3'-Biotin gamma32P-lssDNA45 (ssDNA)
DNA: GTACGTATTCAAGATACCTCGTACTCTGTACTGACTCGGATCCTA
modifications: biotin-T at position 44 (second from 3' end)

Tests used:
DinG D10A E12A = target: T1, DinG D10A E12A (B. subtilis, UniProt P54394 1-931, D10A | E12A); test: far-Western, overlay or dot blot; immuno-dot blot: proteins (75-300 ng) spotted on nitrocellulose, blocked with 5% skimmed milk in PBS, incubated 6 h at 4 °C with 200 ng/ml RecA in PBS, 0.5% skimmed milk powder, 0.1% Triton X-100; washed; retained RecA detected with polyclonal anti-RecA antibody; conditions: both partners purified
T1 construct: DinG, Bacillus subtilis, 931 aa, with codons 10 (Asp) and 12 (Glu) replaced by Ala; cloned into pET3a (pCB1259); also called exonuclease-deficient DinG; ExoI-deficient DinG variant; source: E. coli BL21(DE3) [pLysS] carrying pCB1259, purified by the same protocol as wt DinG
T1 sequence (looked up): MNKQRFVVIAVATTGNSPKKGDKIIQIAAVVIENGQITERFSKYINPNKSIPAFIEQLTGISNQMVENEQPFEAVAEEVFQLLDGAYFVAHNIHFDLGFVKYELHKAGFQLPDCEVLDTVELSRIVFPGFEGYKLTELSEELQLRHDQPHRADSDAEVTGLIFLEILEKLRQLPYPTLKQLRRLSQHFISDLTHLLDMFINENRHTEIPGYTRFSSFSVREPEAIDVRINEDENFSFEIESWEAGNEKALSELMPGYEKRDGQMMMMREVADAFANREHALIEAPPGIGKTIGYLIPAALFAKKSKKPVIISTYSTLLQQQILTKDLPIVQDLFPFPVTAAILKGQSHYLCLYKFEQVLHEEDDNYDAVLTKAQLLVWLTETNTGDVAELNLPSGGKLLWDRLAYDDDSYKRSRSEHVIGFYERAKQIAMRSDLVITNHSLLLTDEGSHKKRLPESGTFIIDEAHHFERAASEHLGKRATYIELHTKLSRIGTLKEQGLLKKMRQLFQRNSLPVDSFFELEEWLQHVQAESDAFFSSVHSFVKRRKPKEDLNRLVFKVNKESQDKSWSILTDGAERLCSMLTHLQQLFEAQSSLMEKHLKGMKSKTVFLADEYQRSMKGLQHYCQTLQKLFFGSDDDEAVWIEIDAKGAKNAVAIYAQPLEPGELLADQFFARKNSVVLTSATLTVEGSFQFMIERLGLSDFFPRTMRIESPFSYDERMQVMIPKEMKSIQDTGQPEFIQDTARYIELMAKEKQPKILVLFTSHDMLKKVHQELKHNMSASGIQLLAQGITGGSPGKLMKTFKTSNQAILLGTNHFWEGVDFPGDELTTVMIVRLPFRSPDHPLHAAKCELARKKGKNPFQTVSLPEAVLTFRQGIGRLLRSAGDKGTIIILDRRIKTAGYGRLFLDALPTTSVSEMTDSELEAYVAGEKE

DinG K290A = target: T2, DinG K290A (B. subtilis, UniProt P54394 1-931, K290A); test: as above; conditions: both partners purified
T2 construct: DinG, Bacillus subtilis, 931 aa, with codon 290 (Lys, Walker A box) replaced by Ala; cloned into pET3a (pCB1260); also called ATPase-deficient DinG; source: E. coli BL21(DE3) [pLysS] carrying pCB1260, purified by the same protocol as wt DinG
T2 sequence (looked up): T1 sequence (looked up) with A10D, A12E, K290A

RecA = target: B1; test: as above; conditions: both partners purified
DinG [1] = target: T3, DinG (Bacillus subtilis, UniProt P54394 1-931); test: EMSA; 2 mM EDTA, no metal; Kapp; text names lssDNA38, Methods and Fig S4 legend give lssDNA45; EMSA, buffer D (composition not in material; 3 mM MgCl2, or 2 mM EDTA instead), 0.5 nM DNA, 37 °C, 10 min (text: 5 min), 15% native PAGE in TBE 1X; pH and salt; conditions: protein: recombinant; tags: none stated (pET3a, untagged); label: 5'-32P; single strand
T3 sequence: T1 sequence (looked up) with A10D, A12E

DinG [2] = target: T3, DinG; test: EMSA; 3 mM Mg2+; substrate degraded during assay; Kapp; EMSA, buffer D (composition not in material; 3 mM MgCl2, or 2 mM EDTA instead), 0.5 nM DNA, 37 °C, 10 min (text: 5 min), 15% native PAGE in TBE 1X; pH and salt; conditions: protein: recombinant; tags: none stated (pET3a, untagged); label: 5'-32P; single strand

B1: binds (DinG D10A E12A); binds (DinG K290A).

B2: binds (RecA).

With B3 the “apparent K (half saturation)” value (DinG [1]) was roughly 0.7 nM and the “apparent K (half saturation)” value (DinG [2]) was less than 0.08 nM.
